The text below walks through data of patent US20250042997A1 (PHYLAXIS BIOSCIENCE, published 2025).

Assay [1] deals with T1, human Siglec-8 (full-length, on transfected CHO or 293 cells, or native on human eosinophils) (human, UniProt Q9NYZ4 17-499). Description: flow cytometry on 293 cells transiently transfected with full-length human Siglec-8; A647 anti-human Fc-gamma secondary; median fluorescence, nonlinear fit; table under the graph. Here is the method: (§1) The binding of the lmG2 and humanized versions (further including Siglec8 hzG2v14), formatted as monomeric VHH-hIgG1 fusions proteins using a non-dimerizing human IgG1 Fe variant region lacking a hinge Fe NNT, was assessed by flow cytometry using 293 cells that had been transiently transfected with full-length human Siglec-8 and detected with an anti-human AF647 secondary antibody. Binding specificity was assessed using untransfected 293 cells as a control. For the binding assays, Siglec-8 293 cells or untransformed 293 cells were seeded in a 96 well U-bottom plate with 50 k cells/well in FACS buffer and incubated at 4° C. with a titration of anti-Siglec8-VHH-NNT for 30 minutes. After washing, the plates were incubated with an A647-conjugated anti-human Fcγ specific secondary antibody diluted 1:10,000 in FACS buffer for 20 minutes at 4° C. The plates were washed, and binding was determined by flow cytometry quantitating anti-human A647 median fluorescent intensity. The maximum specific binding (Bmax) and affinity (Kd) for was determined from the flow cytometry binding data using a nonlinear fit model.
T1 sequence (Q9NYZ4 17-499): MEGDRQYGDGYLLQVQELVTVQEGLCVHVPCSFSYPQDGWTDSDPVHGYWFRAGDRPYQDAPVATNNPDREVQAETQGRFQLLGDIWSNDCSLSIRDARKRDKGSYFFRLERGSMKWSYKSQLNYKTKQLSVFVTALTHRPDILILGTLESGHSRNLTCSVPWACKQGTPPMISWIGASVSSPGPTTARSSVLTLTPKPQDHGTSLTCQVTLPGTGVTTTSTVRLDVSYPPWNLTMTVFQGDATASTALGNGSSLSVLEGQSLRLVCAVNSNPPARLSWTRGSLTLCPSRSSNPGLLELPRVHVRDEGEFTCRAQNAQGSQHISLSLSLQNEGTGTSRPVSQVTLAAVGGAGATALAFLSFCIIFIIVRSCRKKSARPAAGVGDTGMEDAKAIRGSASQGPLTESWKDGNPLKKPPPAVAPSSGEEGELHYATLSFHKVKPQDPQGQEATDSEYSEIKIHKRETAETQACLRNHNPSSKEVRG

The target in assay [2] is T1, human Siglec-8 (full-length, on …). Description: flow cytometry on 293 cells transiently transfected with full-length human Siglec-8; A647 anti-human Fc-gamma secondary; median fluorescence, nonlinear fit; table under the graph (Kd column without unit, concentration axis nM Ab). Here is the method:
as §1
In general terms: A flow cytometer gives signals particle by particle.

The target is the same in assay [3]. The assay is described as above. Here is the method: as §1
This is another data set of the same source.

The target is the same in assay [4]. As to the kind of experiment: flow cytometry on 293 cells transiently transfected with full-length human Siglec-8; A647 anti-human Fc-gamma secondary; median fluorescence, nonlinear fit; table under the graph. Here is the method:
as §1
The source holds these as a separate data set.

For assay [5] the target is unchanged. The description is as above. As for the experimental part:
as §1
The source holds these as a separate data set.

The target is the same in assay [6]. As to the kind of experiment: flow cytometry on 293 cells transiently transfected with full-length human Siglec-8; A647 anti-human Fc-gamma secondary; median fluorescence, nonlinear fit; table under the graph (Kd column without unit, concentration axis nM Ab). As for the experimental part:
as §1
This is another data set of the same source.

For assay [7] the target is unchanged. As to the kind of experiment: flow cytometry, CHO cells transiently transfected with full-length human Siglec-8 (apparent affinity). As for the experimental part: (§2) Binding of the anti-human Siglec-8 VHHs, B12, D1, E2, and G2, as a bivalent VHH-hIgG1-xELL-Fc (VHH of SEQ ID NO: 49, 55, 61, and 1, respectively linked to an Fe xELL via linker 2, these constructs are also designated cx8982, cx8983, cx8984, and cx10382, respectively) was determined by flow cytometry using CHO cells that had been transiently transfected with full-length human Siglec-8. Binding specificity was assessed using untransfected (UT) CHO cells as a control. For the binding assays, 50,000 Siglec-8 CHOs or UT CHOs were seeded in a 96-well plate and a titration of anti-Siglec8-VHH-xELL was added in FACS Buffer (PBS 1% BSA, 0.1% NaN3 pH 7.4) incubating for 30 minutes at 4° C. After washing, the plates were incubated with an A647-conjugated anti-human Fcγ specific secondary antibody (Jackson ImmunoResearch) diluted 1:2000 in FACS buffer for 30 minutes at 4° C. The plates were washed, and binding was determined by flow cytometry quantitating anti-human A647 mean fluorescent intensity using an Intellicyt iQue Plus.
(§3) The binding was specific to Siglec-8 as there was no detectable binding to untransfected CHO cells for any of the tested constructs.

Assay [8] has the same target. As to the kind of experiment: flow cytometry on human eosinophils (CD16- CCR3+) from whole blood; anti-human AF647 secondary; MFI. From the text:
To determine if increasing the valency of Siglec-8 antibodies could enhance agonist activity, the parental llama B12, D1 and E2 VHH sequences were used to generate tetravalent (Tet-B12 (cx8467; SEQ ID NO:50 linked to an Fe), Tet-D1 (cx8469; SEQ ID NO:56 linked to an Fe), and Tet-E2 (cx8463; SEQ ID NO:62 linked to an Fc)) and hexavalent (Hex-B12 (cx8466; SEQ ID NO:51 linked to an Fe), Hex-D1 (cx8523; SEQ ID NO:57 linked to an Fe), and Hex-E2 (cx8522; SEQ ID NO:165 linked to an Fc)), Siglec8-VHH-Fc antibodies linked to a reduced effector function xELL human Fc region via linker 2. The bivalent (Bi-B12 (cx8982), Bi-D1 (cx8983) and Bi-E2 (cx8984)), tetravalent, and hexavalent Siglec8-VHH-Fc antibodies were assessed by flow cytometry for binding to eosinophils (CD16⁻ CCR3⁺). Cells were isolated from whole blood by centrifugation, washed twice with 2% FBS PBS, and resuspended in 1×RBC lysis buffer for 10 minutes at room temperature (RT), washed once in 2% FBS PBS and treated with a second RBC lysis step and washed twice with 2% FBS. Cells were seeded at 200 k/well and resuspended in Human FC block for 10 minutes at RT. Cells were spun down and then resuspended in titrated test articles starting at 200 nM 1:4 and incubated for 30 minutes at 4° C. before being washed twice and resuspended in secondary mixture (2*; anti-CCR3 FITC, anti-human AF647, PI, anti-CD16 BV605) and incubated for 30 minutes at 4° C., washed twice, and bound antibodies were detected via flow cytometry (Novocyte).
As shown in FIG. 2A-2C, bivalent, tetravalent, and hexavalent Siglec8-VHH-Fc antibodies B12 (FIG. 2A), D1 (FIG. 2B) and E2 (FIG. 2C) bound to eosinophils. The calculated affinity was similar between the bivalent, tetravalent, and hexavalent hzSiglec8-VHH-Fc antibodies. The observed Bmax was reduced with increasing valency as anticipated, due the fact that the Fc portion of the antibody was detected in this assay and the ratio of Fc regions to anti-Siglec-8 binding domains is inverse to valency. No binding was observed on other granulocyte populations (CD16⁺ CCR3⁻).

The target is the same in assay [9]. Description: flow cytometry on CHO cells transiently transfected with full-length human Siglec-8; A647 anti-human Fc-gamma secondary; Mean RL1-H. Here is the method:
as §2, §3

The target is the same in assay [10]. Description: flow cytometry on CHO cells transfected with human Siglec-8; labelled anti-human Fc-gamma secondary; Median RL1-H. As for the experimental part:
In additional studies, the parental llama G2 sequence was humanized and multivalent hzSiglec8-G2v14-Fc antibodies were cloned with a reduced effector function xELL human Fe. Binding of bivalent (ex11422; SEQ ID NO: 5 linked to an Fe xELL via linker 2), tetravalent (cx11580; SEQ ID NO: 9 linked to an Fe xELL via linker 2), and hexavalent (cx11579; SEQ ID NO: 10 linked to an Fe xELL via linker 2) hzSiglec8-G2v14-Fc antibodies were assessed by flow cytometry using CHO cells transfected with human Siglec-8. A titration series of the fusion proteins were incubated with the Siglec8-expressing CHO cells (5×10⁴ cells/well) for 30 minutes at 4° C. in FACS Buffer (PBS 1% BSA, 0.1% NaN3 pH 7.4) in 96 well plates. Following one 150 μL wash with FACS buffer, an APC-conjugated anti-human Fcγ specific secondary antibody (Jackson ImmunoResearch) was added, and cells were incubated for 30 minutes at 4° C. Following one additional wash in FACS buffer, bound antibodies were detected via flow cytometry (iQue Intellicyte).
The calculated affinity was similar between the bivalent, tetravalent, and hexavalent hzSiglec8-G2v14-Fc antibodies. The observed Bmax was reduced with increasing valency as anticipated, due the fact that the Fc portion of the antibody was detected in this assay and the ratio of Fc regions to anti-Siglec-8 binding domains is inverse to valency.

Numbering of substitutions follows the chain as printed. Read-outs that look alike come from different tables or passages of the source.

B1: llama anti-Siglec8-G2 VHH (lmG2), monomeric VHH-hIgG1 fusion (Fc NNT) (Fc fusion)
chain: QVTLKESGGGLVRTGGSLRLSCAASGSISIFSMYVVAWYRQAPGKQREWVAFIQRGGTANYADSAKGRFTISRDNAKNTVYLQMASLKPDDTAVYYCNYINSDNEIGGPWGQGTQVTVKP
notes: Monomeric format; also called parental clone; not shown: non-dimerizing human IgG1 Fc variant lacking a hinge (Fc NNT)
Regarding B1, the figures for the Bmax in assay [1], in [4] and in assay [5] were 1.15e+06 Median (anti-human A647), 1.28e+06 Median (anti-human A647) and 1.36e+06 Median (anti-human A647), respectively. Besides, the Kd worked out at 0.124 nM in [2], 0.114 nM in assay [3] and 0.0637 nM in assay [6].

B2: Siglec8 hzG2v32, monomeric VHH-hIgG1 fusion (Fc NNT) (Fc fusion)
chain: B1 chain with Q1E, T3Q, K5L, L11E, R13Q, D63E, A85S, K88R, D90E, Q115L
notes: Monomeric format; not shown: non-dimerizing human IgG1 Fc variant lacking a hinge (Fc NNT)
As to B2, the Bmax in assay [1] was 1.45e+06 Median (anti-human A647). Also, the Kd in assay [6] is 0.0643 nM.

B3: Siglec8 hzG2v33, monomeric VHH-hIgG1 fusion (Fc NNT) (Fc fusion)
chain: B1 chain with Q1E, T3Q, K5L, L11E, R13Q, D63E, A85S, K88R, P89A, Q115L
notes: as for B2
As for B3, the Bmax in assay [1] was 1.39e+06 Median (anti-human A647). The same molecule displayed a Kd in assay [6] of 0.0979 nM.

B4: anti-Siglec8-D1-xELL, bivalent VHH-hIgG1-xELL-Fc (Fc fusion)
chain: QVQLVESGGGLVQPGGSLRLSCAASGSIASIHGMGWYRQAPGKERELVAAIAGEGSTYYADSVKGRFTISRDFAKNTLYLQMNNLKAEDTAMYYCANNDERDDYWGQGTQVTVKPGGGGDKTHTCPPCPAPGGPSVFLFPPKPKDTLMISRTPEVTCVVVDVSHEDPEVKFNWYVDGVEVHNAKTKPREEQYNSTYRVVSVLTVLHQDWLNGKEYKCKVSNKALPAPIEKTISKAKGQPREPQVYTLPPSRDELTKNQVSLTCLVKGFYPSDIAVEWESNGQPENNYKTTPPVLDSDGSFFLYSKLTVDKSRWQQGNVFSCSVMHEALHNHYTQKSLSLSPGK
notes: Homodimer through the Fc; also called cx8983; Bi-D1
The EC50 (read off the curve) is the concentration giving half of the maximal effect. A lower EC50 (read off the curve) goes with greater potency. Turning to B4, the Kd in assay [7] came to 0.427 nM. Further, the “EC50 (read off the curve)” value in [8] was around 0.06 nM; in assay [9], around 0.5 nM.

B5: hexavalent hzSiglec8-G2v14-Fc (xELL) (Fc fusion)
chain: EVQLLESGGGEVQPGGSLRLSCAASGSISIFSMYVVAWYRQAPGKEREWVAFIQRGGTANYAESAKGRFTISRDNAKNTVYLQMSSLRAEDTAVYYCNYINTDNEIGGPWGQGTLVTVKPGGSGGSEVQLLESGGGEVQPGGSLRLSCAASGSISIFSMYVVAWYRQAPGKEREWVAFIQRGGTANYAESAKGRFTISRDNAKNTVYLQMSSLRAEDTAVYYCNYINTDNEIGGPWGQGTLVTVKPGGSGGSEVQLLESGGGEVQPGGSLRLSCAASGSISIFSMYVVAWYRQAPGKEREWVAFIQRGGTANYAESAKGRFTISRDNAKNTVYLQMSSLRAEDTAVYYCNYINTDNEIGGPWGQGTLVTVKPGGGGDKTHTCPPCPAPGGPSVFLFPPKPKDTLMISRTPEVTCVVVDVSHEDPEVKFNWYVDGVEVHNAKTKPREEQYNSTYRVVSVLTVLHQDWLNGKEYKCKVSNKALPAPIEKTISKAKGQPREPQVYTLPPSRDELTKNQVSLTCLVKGFYPSDIAVEWESNGQPENNYKTTPPVLDSDGSFFLYSKLTVDKSRWQQGNVFSCSVMHEALHNHYTQKSLSLSPGK
notes: Homodimer through the Fc; also called cx11579
In the case of B5, the “EC50 (read off the curve)” value in [10] is around 0.02 nM.

B6: anti-Siglec8-E2-xELL, bivalent VHH-hIgG1-xELL-Fc (Fc fusion)
chain: QVQLVESGGGLVQPGGSLRLSCATSGIIFTSNVINWYRQAPGKQREFVAFITSITSGQSTMYADAVKGRFTVSRDNDKNIGYLQMTSLQPEDTARYVCNVGAYWGQGTQVTVKPGGGGDKTHTCPPCPAPGGPSVFLFPPKPKDTLMISRTPEVTCVVVDVSHEDPEVKFNWYVDGVEVHNAKTKPREEQYNSTYRVVSVLTVLHQDWLNGKEYKCKVSNKALPAPIEKTISKAKGQPREPQVYTLPPSRDELTKNQVSLTCLVKGFYPSDIAVEWESNGQPENNYKTTPPVLDSDGSFFLYSKLTVDKSRWQQGNVFSCSVMHEALHNHYTQKSLSLSPGK
notes: Homodimer through the Fc; also called cx8984; Bi-E2
Turning to B6, the Kd in assay [7] turned out to be 0.331 nM. In addition, the figures for the half-maximal effective concentration (EC50 (read off the curve)) in [8] and in [9] were around 0.1 nM and around 0.4 nM, respectively.
